Reference: patent US11254745 (CROWN BIOSCIENCE, dated 2022)

Experiments:
[1] = molecular target: T1, human CD4 on 293T cells stably expressing CD4 (CD4-293T) (human, UniProt P01730 26-458); assay: FACS, humanized antibody on CD4-293T cells
T1 construct: whole, on cells; also called 293T-CD4 cells; hCD4 (FACS)
Method: (§1) Cell binding analysis of anti-CD4 antibody was performed using 293T cell line stably expressing CD4 (CD4-293T). 2*10^5 CD4-293T cells were added to each well of 96-well plate and incubated with the indicated hybridoma supernatant or a serial concentrations of purified antibody (starting from 20 μg/mL) at 4° C. for 1 h. After the cells were washed three times with FACS buffer, the secondary antibody (PE Goat anti-mouse: 1:200) was added to the cells at 100 μl/well, and incubated at 4° C. for 40 min. Cells were washed three times with FACS buffer and analyzed by FACS Array. The binding EC50 of purified antibody was calculated with GraphPad Prism 5.
(§2) DNA encoding humanized 2B6, 29B7 and MT412 antibody light chain and heavy chain was synthesized and cloned to the expression vector pcDNA3.1 (Invitrogen, Cat. No: V-790). Freestyle 293 cells (200 mL at 10^6/mL) were transfected with 100 µg of each of the humanized heavy and light chain expression plasmids and cultured for 6 days at 37° C. The humanized antibody in the supernatant was then purified with Protein-A column (GE healthcare). Binding of the chimeric antibody with CD4 was measured by ELISA (FIG. 6, Table 7) and FACS (FIG. 7, Table 8), and the methods used were similar to those described above in Example 2.

[2] = molecular target: T2, extracellular domain of hCD4 fused with human Fc tag (hCD4-hFc) (human, UniProt P01730 26-396); assay: ELISA, humanized antibody on hCD4, method similar to Example 2
T2 construct: extracellular domain; also called human CD4-hFc; hCD4 (ELISA); not shown: human Fc tag
Method: Example 2: Selection of the Anti-hCD4 Hybridoma Antibodies Based on Binding and Gene Reporter Assays The binding interaction between hybridoma antibody and human CD4-hFc was measured by ELISA. 96-well plates (Costar, Cat. No:9018) were coated with 100 μL of 2 μg/ml CD4-hFc (CrownBio) in PBS buffer (Hyclone, Cat. No: SH30256.01B) overnight at 4° C. The wells were aspirated and non-specific binding sites were blocked by adding 200 μL of blocking buffer containing 1% (w/v) of bovine serum albumin (BSA, Roche, Cat. No: 738328) and incubating for 1 hour at 37° C. After the plates are washed three times with PBS buffer containing 0.05% (v/v) Tween™ 20 (Sigma, Cat. No: P1379), 100 μL hybridoma supernatant or a serial concentrations of purified antibody (starting from 20 μg/mL) diluted in blocking buffer was added to each well and incubated at room temperature for 1 hour. The plates were washed and incubated with 100 μL/well of Goat anti-Mouse IgG (Thermo, Cat. No:31432) in blocking buffer for 60 min. After the plates were washed, 100 μL/well of substrate solution TMB (eBioscience, Cat. No:00-4201-56) was added, and the plates were incubated for 2 min at room temperature before 100 μL/well of 2N H_2SO_4 was added to stop the reaction. The colorimetric signals were monitored at 450 nm using a SpectraMax Plus microplate reader (Molecular Devices). For the purified antibody, data were analyzed using GraphPad Prism 5 to calculated the $EC50$.
as §2

[3] = molecular target: T3, extracellular domain of hCD4 fused with a histidine tag (hCD4-HisTag) (human, UniProt P01730 26-396); assay: Biacore T200 SPR, antibody captured on Protein A, CD4-HisTag analyte, 1:1 fit, 25 C
T3 construct: extracellular domain; also called human CD4-HisTag; not shown: histidine tag
Method: The binding kinetics between CD4 and CD4 antibodies were measured by Biacore™ analysis, which was performed at 25° C. on a Biacore™ T200 instrument. Protein A (GE, Cat. No:29139131-AA) was diluted with 10 mM pH 5.0 sodium acetate and immobilized onto reference and experiment flow cells of a CM5 biosensor chip to around 15000 RU using an amine coupling kit (GE, BR10050). In the beginning of each cycle, diluted test antibody (1.5 µg/mL) was injected over experiment flow cell for 1 minute to be captured. CD4-HisTag analyte series were prepared by diluting the stocks with running buffer to 100 nM followed by 2-fold serial dilution in the same buffer down to 0.78 nM. Analytes were injected in series over the reference and experiment flow cells for 3 minutes at a flow rate of 30
μL/minute. Running buffer (PBS with 0.05% P20) was allowed to flow over for 10 minutes at a flow rate of 30 μL/minute. At the end of each cycle, the biosensor surface was regenerated with 3-minute injection of 10 mM pH 2.0 Glycine-HCl buffer at a flow rate of 10 μL/minute. For each analyte sample injection (i.e., each cycle), binding responses obtained from the experimental biosensor surface were double referenced by subtracting simultaneously recorded responses from the reference surface followed by additional subtraction of responses from a single referenced running buffer sample. The association and dissociation rate constants (ka and kd) were determined simultaneously by fitting double-referenced sensorgrams of the entire titration series to Langmuir model (1:1) using Biaevaluation software. The dissociation constant, KD, was calculated from the determined rate constants by the equation KD=kd/ka.

[4] = molecular target: T2, extracellular domain of hCD4 fused with …; assay: ELISA on human CD4, OD450; table under the graph (unit from the graph's axis); Table 7 of the text gives this value to 2B6
Method: (§3) Example 2: Selection of the Anti-hCD4 Hybridoma Antibodies Based on Binding and Gene Reporter Assays The binding interaction between hybridoma antibody and human CD4-hFc was measured by ELISA. 96-well plates (Costar, Cat. No:9018) were coated with 100 μL of 2 μg/ml CD4-hFc (CrownBio) in PBS buffer (Hyclone, Cat. No: SH30256.01B) overnight at 4° C. The wells were aspirated and non-specific binding sites were blocked by adding 200 μL of blocking buffer containing 1% (w/v) of bovine serum albumin (BSA, Roche, Cat. No: 738328) and incubating for 1 hour at 37° C. […] The colorimetric signals were monitored at 450 nm using a SpectraMax Plus microplate reader (Molecular Devices). For the purified antibody, data were analyzed using GraphPad Prism 5 to calculated the $EC50$.
(§4) DNA encoding humanized 2B6, 29B7 and MT412 antibody light chain and heavy chain was synthesized and cloned to the expression vector pcDNA3.1 (Invitrogen, Cat. No: V-790). […] Binding of the chimeric antibody with CD4 was measured by ELISA (FIG. 6, Table 7) and FACS (FIG. 7, Table 8), and the methods used were similar to those described above in Example 2.

[5] = molecular target: T1, human CD4 on 293T cells stably …; assay: FACS on 293T cells expressing human CD4, MFI; table under the graph (unit from the graph's axis); Table 8 of the text gives this value to 2B6
Method: as §1, §2

[6] = molecular target: T2, extracellular domain of hCD4 fused with …; assay: ELISA on human CD4, OD450; table under the graph (unit from the graph's axis); Table 7 of the text gives this value to 29B7
Method: as §3, §4

[7] = molecular target: T1, human CD4 on 293T cells stably …; assay: FACS on 293T cells expressing human CD4, MFI; table under the graph (unit from the graph's axis); Table 8 of the text gives this value to 29B7
Method: as §1, §2

[8] = molecular target: T2, extracellular domain of hCD4 fused with …; assay: ELISA on human CD4, OD450; table under the graph (unit from the graph's axis); Table 7 of the text gives this value to MT412
Method: as §3, §4

[9] = molecular target: T1, human CD4 on 293T cells stably …; assay: FACS on 293T cells expressing human CD4, MFI; table under the graph (unit from the graph's axis); Table 8 of the text gives this value to MT412
Method: as §1, §2

B1: MT412 humanized anti-CD4 antibody (antibody, V domains shown)
VH: QIQLVQSGSELKKPGASVKVSCKASGYTFTDYSMHWVRQAPGQGLEWMGWINTETGEPTYADDFKGRFVFSLDTSVSTAYLQISSLKAEDTAVYYCAREDYYGHDGFLYWGQGTLVTVSS
VL: DIQMTQSPSFLSASVGDRVTITCKASQDVVTTVAWYQQKPGKAPKLLIYWASLRHTGVPSRFSGSGSGTEFTLTISSLQPEDFATYFCQQYSSYPYTFGQGTKLEIKR
notes: Expressed as heavy and light chains in Freestyle 293 cells; The description says only that humanized antibodies may have human IgG1 and human kappa constant regions; also called Humanized MT412
EC50 [1]: 0.183 µg/mL
EC50 [2]: 0.0116 µg/mL
Kd [3]: 1.8 nM
koff [3]: 0.00199 s⁻¹
kon [3]: 1.11e+06 M⁻¹ s⁻¹
EC50 [4]: 0.0116 µg/mL
EC50 [5]: 0.211 µg/mL

B2: 2B6 humanized anti-CD4 antibody (antibody, V domains shown)
VH: QVQLQESGPGLVKPSETLSLTCTVSGDSITSGYWNWIRQPPGKGLEFLGYISFADTTNYNPSLKSRVTISRDTSKNQFSLKLSSVTAADTAVYYCARDDYGYYAMDYWGQGTLVTVSS
VL: DIQLTQSPSSLSASVGDRVTITCRASQDIDNYLNWYQQKPGKAPKLLIYYTSRLHSGVPSRFSGSGSGTDYTLTISSLQPEDFATYYCQQGNTLPTFGQGTKLEIK
notes: Expressed as heavy and light chains in Freestyle 293 cells; also called Humanized 2B6
EC50 [1]: 0.211 µg/mL
EC50 [2]: 0.0116 µg/mL
Kd [3]: 0.152 nM
koff [3]: 7.89e-05 s⁻¹
kon [3]: 520000 M⁻¹ s⁻¹
EC50 [6]: 0.0056 µg/mL
EC50 [7]: 0.182 µg/mL

B3: 29B7 humanized anti-CD4 antibody (antibody, V domains shown)
VH: QVQLVQSGAEVKKPGASVKVSCKASGDSLNTHWMHWVRQAPGQRLEWIGYINPYTGSGEYSQKFKGRATLTADISASTAYMELSSLRSEDTAVYYCAYDSTGAMDYWGQGTLVTVSS
VL: DIQMTQSPSSLSASVGDRVTITCKASQDINRYLSWFQQKPGKAPKTPIYRADRSVDGVPSRFSGSGSGQDYTLTISSLQPEDFATYYCQQYDEFPYTFGQGTKLEIK
notes: Expressed as heavy and light chains in Freestyle 293 cells; The description says only that humanized antibodies may have human IgG1 and human kappa constant regions; also called Humanized 29B7
EC50 [1]: 0.182 µg/mL
EC50 [2]: 0.0056 µg/mL
Kd [3]: 0.444 nM
koff [3]: 0.000457 s⁻¹
kon [3]: 1.03e+06 M⁻¹ s⁻¹
EC50 [8]: 0.0116 µg/mL
EC50 [9]: 0.183 µg/mL
